Experimental data taken from patent publication US7090834B1, “Vascular endothelial cell growth factor variants and uses thereof” (Genentech, Inc., priority 1999, dated 2006).

Key:
Flt-1 receptor = Flt-1 receptor binding ELISA (inhibition of biotinylated native VEGF binding to Flt-IgG); conditions: for Relative Binding Affinity, FLT-1 Receptor: ratio to native VEGF (8–109): second figure of the cell, fold less binding than native VEGF
Procedure: (§1) Receptor binding assays were performed in 96-well immunoplates (Maxisorp, Nunc-Immunoplate, Nalge Nunc International, Rochester, N.Y.). Each well was coated with 100 μl of a solution containing 2 μg/ml of rabbit F(ab′)2 to human IgG Fc (Jackson ImmunoResearch, West Grove, Pa.) in 50 mM carbonate buffer at pH 9.6 and incubated at 4° C. overnight. The supernatant was then discarded, the wells were washed three times in washing buffer (0.05% Tween 20 in PBS), and the plate was blocked (150 μl per well) with block buffer (0.5% BSA, 0.01% thimerosal in PBS) at room temperature for one hour. The supernatant was discarded, and the wells were washed.
The wells were filled with 100 μl of a solution containing Flt-IgG (a chimeric Flt-human Fc molecule) at 50 ng/ml in assay buffer (0.5% BSA, 0.05% Tween 20 in PBS). The wells were incubated at room temperature for 1 hour and then washed three times in wash buffer (0.05% Tween 20 in PBS).
(§2) Aliquots of the mixture (100 μl) were added to the precoated microtiter wells and the plate was incubated for 2 hours at room temperature. […] The wells were then incubated with 3, 3′, 5,5′-tetramethyl benzidine (0.2 g/liter, Kirkegaard & Perry Laboratories, Gaithersburg, Md.) for about 10 minutes at room temperature. Absorbance was read at 450 nm on a Vmax plate reader (Molecular Devices, Menlo Park, Calif.).
(§3) Titration curves were fit with a four-parameter nonlinear regression curve-fitting program (KaleidaGraph, Synergy Software, Reading, Pa.).

KDR receptor = KDR receptor (Homo sapiens, UniProt P35968); assay: KDR receptor binding ELISA (inhibition of biotinylated native VEGF (8–109) binding); conditions: second figure of the cell, variant midpoint concentration divided by that of native VEGF
Procedure: as §1, with “containing 8” for “containing 2”, “of a monoclonal antibody” for “of rabbit F(ab′)2”, “to KDR known as MAKD5 (Genentech, South San Francisco, Calif.)” for “to human IgG Fc (Jackson ImmunoResearch, West Grove, Pa.)”, “was” for “was then”
as §2, with “of this” for “of the”, “for 1 hour” for “for 2 hours”, “(0.2 gram/liter;” for “(0.2 g/liter,”
as §3

KDR (1-3) = target: T1, KDR (1-3) (UniProt P35968 20-327, limits assumed); assay: competition ELISA vs biotinylated native VEGF (8-109) for KDR (1-3)
T1 construct: domain: domains 1 to 3; Genentech reagent; also called KDR (1-3) monomer; domains 1 to 3 of KDR
Procedure: as §1, with “containing 8” for “containing 2”, “of a monoclonal antibody” for “of rabbit F(ab′)2”, “to KDR known as MAKD5 (Genentech, South San Francisco, Calif.)” for “to human IgG Fc (Jackson ImmunoResearch, West Grove, Pa.)”, “was” for “was then”
as §2, with “of this” for “of the”, “for 1 hour” for “for 2 hours”, “3, 3', 5,5'-tetramethyl” for “3, 3′, 5,5′-tetramethyl”, “(0.2 gram/liter;” for “(0.2 g/liter,”
as §3

T1 sequence (P35968 20-327 limits assumed): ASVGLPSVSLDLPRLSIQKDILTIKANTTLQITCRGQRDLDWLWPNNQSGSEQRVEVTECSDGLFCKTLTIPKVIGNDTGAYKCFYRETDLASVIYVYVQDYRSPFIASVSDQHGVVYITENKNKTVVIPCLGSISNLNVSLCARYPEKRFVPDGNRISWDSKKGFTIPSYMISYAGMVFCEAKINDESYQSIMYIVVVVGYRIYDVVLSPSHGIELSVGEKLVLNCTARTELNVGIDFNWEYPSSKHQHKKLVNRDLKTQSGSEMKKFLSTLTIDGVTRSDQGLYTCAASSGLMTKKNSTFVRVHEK
Chain of KDR receptor (P35968 20-327 limits assumed): as above
Chain of Flt-1 receptor (P17948 27-327 limits assumed): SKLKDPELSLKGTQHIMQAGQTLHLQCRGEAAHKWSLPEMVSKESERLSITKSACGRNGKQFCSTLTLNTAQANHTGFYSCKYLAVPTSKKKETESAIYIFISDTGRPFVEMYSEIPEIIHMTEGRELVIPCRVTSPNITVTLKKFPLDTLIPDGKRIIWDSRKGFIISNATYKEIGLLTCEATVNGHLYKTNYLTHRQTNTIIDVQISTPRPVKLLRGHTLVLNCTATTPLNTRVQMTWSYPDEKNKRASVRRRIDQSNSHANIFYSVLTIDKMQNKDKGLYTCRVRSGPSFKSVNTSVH

Row | Molecule | IC50 (Flt-1 receptor; first figure of the cell, Flt-IgG, read-out: Relative Binding Affinity, FLT-1 Receptor: concentration at midpoint absorbance) [nM] | Relative Binding Affinity, FLT-1 Receptor: ratio to native VEGF (8–109) (Flt-1 receptor) | Relative Binding Affinity, KDR Receptor: ratio to native VEGF (8–109) (KDR receptor) | relative binding affinity (ratio to native VEGF (8-109)) (KDR (1-3)) [ratio] | IC50 (KDR (1-3)) [nM]
1 | LK-VRB-2s*: VEGF (1–109) variant with D63S/G65M/L66R; KDR selective variant | > 400 |  |  |  | 
2 | LK-VRB-19s (ligand, human, UniProt P15692-4 27-135, looked up, one of the two is probably misprinted) APMAEGGGQNHHEVVKFEDVYRRSSCHPIETLVDIFQEYPDEIEYIFKPSCVPLMRCGGCCNSEMRECVPTEESNITMQIMRIKPHQGQHIGEMSFLQHNKCECRPKKD |  | />35000 | 7 nM/7 | 7 | 
3 | LK-VRB-17s (ligand) APMAEGGGQNHHEVVKFEDVLRRSYCHPIETLVDIFQEYPDEIEYIFKPSCVPLMRCGGCCNSEMRECVPTEESNITMQIMRIKPHQGQHIGEMSFLQHNKCECRPKKD |  | />1900 |  | 130 | 
4 | LK-VRB-3s: VEGF (1–109) variant with F17I/M18E/Y21F/Q22K/Y25S (protein) APMAEGGGQNHHEVVKIEDVFKRSSCHPIETLVDIFQEYPDEIEYIFKPSCVPLMRCGGCCNDEGLECVPTEESNITMQIMRIKPHQGQHIGEMSFLQHNKCECRPKKD |  |  | 1 nM/1 |  | 
5 | LK-VRB-6s: VEGF (1–109) variant with D63S/G65A/L66T (protein) APMAEGGGQNHHEVVKFMDVYQRSYCHPIETLVDIFQEYPDEIEYIFKPSCVPLMRCGGCCNSEATECVPTEESNITMQIMRIKPHQGQHIGEMSFLQHNKCECRPKKD |  |  | 0.5 nM/0.5 |  | 
6 | LK-VRB-4s: VEGF (1–109) variant with F17I/M18E/Y21F/Q22E/Y25I (protein) APMAEGGGQNHHEVVKIEDVFERSICHPIETLVDIFQEYPDEIEYIFKPSCVPLMRCGGCCNDEGLECVPTEESNITMQIMRIKPHQGQHIGEMSFLQHNKCECRPKKD |  |  | 1 nM/1 |  | 
7 | LK-VRB-12s (ligand, human, UniProt P15692-4 27-135, looked up) APMAEGGGQNHHEVVKFEDVYRRSYCHPIETLVDIFQEYPDEIEYIFKPSCVPLMRCGGCCNSEMRECVPTEESNITMQIMRIKPHQGQHIGEMSFLQHNKCECRPKKD |  | />5600 | 0.4 nM/0.4 | 0.4 | 
8 | LK-VRB-21s (ligand, human, UniProt P15692-4 27-135, looked up) APMAEGGGQNHHEVVKFEDVLRRSSCHPIETLVDIFQEYPDEIEYIFKPSCVPLMRCGGCCNSEGLECVPTEESNITMQIMRIKPHQGQHIGEMSFLQHNKCECRPKKD |  | />5600 | 3 nM/3 | 3 | 
9 | LK-VRB-23s (ligand, human, UniProt P15692-4 27-135, looked up) APMAEGGGQNHHEVVKFEDVLRRSSCHPIETLVDIFQEYPDEIEYIFKPSCVPLMRCGGCCNDEGRECVPTEESNITMQIMRIKPHQGQHIGEMSFLQHNKCECRPKKD |  | />8500 | 11 nM/11 | 11 | 
10 | LK-VRB-20s (ligand, human, UniProt P15692-4 27-135, looked up) APMAEGGGQNHHEVVKFMDVLRRSSCHPIETLVDIFQEYPDEIEYIFKPSCVPLMRCGGCCNSEMRECVPTEESNITMQIMRIKPHQGQHIGEMSFLQHNKCECRPKKD |  | />10000 | 2 nM/2 | 2 | 
11 | LK-VRB-14s (ligand, human, UniProt P15692-4 27-135, looked up) APMAEGGGQNHHEVVKFMDVLRRSYCHPIETLVDIFQEYPDEIEYIFKPSCVPLMRCGGCCNSEMRECVPTEESNITMQIMRIKPHQGQHIGEMSFLQHNKCECRPKKD |  | />2900 | 0.5 nM/0.5 | 0.5 | 
12 | LK-VRB-10s (ligand, human, UniProt P15692-4 27-135, looked up) APMAEGGGQNHHEVVKFMDVYQRSSCHPIETLVDIFQEYPDEIEYIFKPSCVPLMRCGGCCNSEMRECVPTEESNITMQIMRIKPHQGQHIGEMSFLQHNKCECRPKKD |  | />2400 | 0.5 nM/0.5 | 0.5 | 
13 | LK-VRB-15s (ligand, human, UniProt P15692-4 27-135, looked up) APMAEGGGQNHHEVVKFMDVLQRSSCHPIETLVDIFQEYPDEIEYIFKPSCVPLMRCGGCCNSEMRECVPTEESNITMQIMRIKPHQGQHIGEMSFLQHNKCECRPKKD |  | />21000 | 2 nM/2 | 2 | 

More lines, now with the values ahead:

Row | IC50 (Flt-1 receptor; first figure of the cell, Flt-IgG, read-out: Relative Binding Affinity, FLT-1 Receptor: concentration at midpoint absorbance) [nM] | Relative Binding Affinity, FLT-1 Receptor: ratio to native VEGF (8–109) (Flt-1 receptor) | Relative Binding Affinity, KDR Receptor: ratio to native VEGF (8–109) (KDR receptor) | relative binding affinity (ratio to native VEGF (8-109)) (KDR (1-3)) [ratio] | IC50 (KDR (1-3)) [nM] | Molecule
14 |  |  | 1 nM/1 |  |  | LK-VRB-5s: VEGF (1–109) variant with D63S/L66R (protein) APMAEGGGQNHHEVVKFMDVYQRSYCHPIETLVDIFQEYPDEIEYIFKPSCVPLMRCGGCCNSEGRECVPTEESNITMQIMRIKPHQGQHIGEMSFLQHNKCECRPKKD
15 |  |  |  | 130 | 130 | LK-VRB-18s (ligand) APMAEGGGQNHHEVVKFEDVLQRSSCHPIETLVDIFQEYPDEIEYIFKPSCVPLMRCGGCCNSEMRECVPTEESNITMQIMRIKPHQGQHIGEMSFLQHNKCECRPKKD
16 |  | />1400 | 0.6 nM/0.6 | 0.6 |  | LK-VRB-16s (ligand, human, UniProt P15692-4 27-135, looked up) APMAEGGGQNHHEVVKFMDVYRRSSCHPIETLVDIFQEYPDEIEYIFKPSCVPLMRCGGCCNSEMRECVPTEESNITMQIMRIKPHQGQHIGEMSFLQHNKCECRPKKD
17 |  | />14000 | 14 nM/14 | 14 |  | LK-VRB-13s (ligand, human, UniProt P15692-4 27-135, looked up) APMAEGGGQNHHEVVKFEDVYQRSSCHPIETLVDIFQEYPDEIEYIFKPSCVPLMRCGGCCNSEMRECVPTEESNITMQIMRIKPHQGQHIGEMSFLQHNKCECRPKKD
18 |  | />30 | 4 nM/4 | 4 |  | LK-VRB-22s (ligand, human, UniProt P15692-4 27-135, looked up) APMAEGGGQNHHEVVKFEDVLRRSSCHPIETLVDIFQEYPDEIEYIFKPSCVPLMRCGGCCNDEMLECVPTEESNITMQIMRIKPHQGQHIGEMSFLQHNKCECRPKKD
19 |  | />14000 | 2 nM/2 | 2 |  | LK-VRB-11s (ligand, human, UniProt P15692-4 27-135, looked up) APMAEGGGQNHHEVVKFEDVLQRSYCHPIETLVDIFQEYPDEIEYIFKPSCVPLMRCGGCCNSEMRECVPTEESNITMQIMRIKPHQGQHIGEMSFLQHNKCECRPKKD
